Experimental data as given in US20250163182A1 (Janssen / Centocor, published 2025).

Assays:
human ENPP3 on cells [1] = biological target: T1, human ENPP3 on cells (human, UniProt O14638 1-875); experiment: cell-based or functional assay
T1 sequence (looked up): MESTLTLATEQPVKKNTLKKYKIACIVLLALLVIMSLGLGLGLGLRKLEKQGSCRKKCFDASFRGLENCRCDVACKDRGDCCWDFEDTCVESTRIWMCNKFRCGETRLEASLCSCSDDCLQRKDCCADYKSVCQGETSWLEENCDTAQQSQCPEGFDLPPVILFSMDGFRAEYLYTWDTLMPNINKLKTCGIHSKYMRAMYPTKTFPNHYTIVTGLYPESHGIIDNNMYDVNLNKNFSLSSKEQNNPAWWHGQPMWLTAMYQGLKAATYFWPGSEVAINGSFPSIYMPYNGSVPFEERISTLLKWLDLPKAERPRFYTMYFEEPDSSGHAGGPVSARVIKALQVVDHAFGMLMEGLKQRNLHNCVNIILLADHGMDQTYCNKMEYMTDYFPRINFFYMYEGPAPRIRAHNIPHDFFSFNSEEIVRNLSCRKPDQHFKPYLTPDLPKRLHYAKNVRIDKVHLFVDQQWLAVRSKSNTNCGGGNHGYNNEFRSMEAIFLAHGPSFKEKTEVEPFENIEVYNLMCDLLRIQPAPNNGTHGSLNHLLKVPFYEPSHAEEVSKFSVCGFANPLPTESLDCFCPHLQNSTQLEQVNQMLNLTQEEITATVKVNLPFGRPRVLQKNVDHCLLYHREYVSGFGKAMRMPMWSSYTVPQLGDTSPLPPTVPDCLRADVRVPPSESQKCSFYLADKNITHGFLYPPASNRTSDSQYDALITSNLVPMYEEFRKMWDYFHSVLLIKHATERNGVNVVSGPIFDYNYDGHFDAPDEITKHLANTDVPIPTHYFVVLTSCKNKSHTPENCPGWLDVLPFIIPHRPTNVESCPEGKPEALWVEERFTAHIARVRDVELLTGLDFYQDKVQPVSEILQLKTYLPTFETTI

human CD3 on T cells [2] = biological target: T2, human CD3 on T cells (human, UniProt P07766 23-207); experiment: flow cytometry on human T cells, donor 110042593
T2 construct: on T cells it stands in the TCR-CD3 complex; also called human T cells; T cells isolated from healthy human donors
T2 sequence (P07766 23-207 limits assumed): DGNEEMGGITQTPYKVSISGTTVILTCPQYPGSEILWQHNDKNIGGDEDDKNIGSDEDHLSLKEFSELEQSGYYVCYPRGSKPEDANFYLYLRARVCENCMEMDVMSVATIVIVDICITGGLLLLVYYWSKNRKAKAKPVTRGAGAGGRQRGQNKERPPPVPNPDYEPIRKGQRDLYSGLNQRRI

human CD3 on T cells [3] = biological target: T2, human CD3 on T cells; experiment: flow cytometry on human T cells, donor 888668965
ENPP1 on CHOK1 cells = biological target: T3, ENPP1 on CHOK1 cells (UniProt P22413 1-925, limits assumed); experiment: flow cytometry on CHO cells overexpressing ENPP1
T3 construct: whole, on cells; also called ectonucleotide pyrophosphatase/phosphodiesterase family member 1; CHO ENPP1 OE
T3 sequence (looked up): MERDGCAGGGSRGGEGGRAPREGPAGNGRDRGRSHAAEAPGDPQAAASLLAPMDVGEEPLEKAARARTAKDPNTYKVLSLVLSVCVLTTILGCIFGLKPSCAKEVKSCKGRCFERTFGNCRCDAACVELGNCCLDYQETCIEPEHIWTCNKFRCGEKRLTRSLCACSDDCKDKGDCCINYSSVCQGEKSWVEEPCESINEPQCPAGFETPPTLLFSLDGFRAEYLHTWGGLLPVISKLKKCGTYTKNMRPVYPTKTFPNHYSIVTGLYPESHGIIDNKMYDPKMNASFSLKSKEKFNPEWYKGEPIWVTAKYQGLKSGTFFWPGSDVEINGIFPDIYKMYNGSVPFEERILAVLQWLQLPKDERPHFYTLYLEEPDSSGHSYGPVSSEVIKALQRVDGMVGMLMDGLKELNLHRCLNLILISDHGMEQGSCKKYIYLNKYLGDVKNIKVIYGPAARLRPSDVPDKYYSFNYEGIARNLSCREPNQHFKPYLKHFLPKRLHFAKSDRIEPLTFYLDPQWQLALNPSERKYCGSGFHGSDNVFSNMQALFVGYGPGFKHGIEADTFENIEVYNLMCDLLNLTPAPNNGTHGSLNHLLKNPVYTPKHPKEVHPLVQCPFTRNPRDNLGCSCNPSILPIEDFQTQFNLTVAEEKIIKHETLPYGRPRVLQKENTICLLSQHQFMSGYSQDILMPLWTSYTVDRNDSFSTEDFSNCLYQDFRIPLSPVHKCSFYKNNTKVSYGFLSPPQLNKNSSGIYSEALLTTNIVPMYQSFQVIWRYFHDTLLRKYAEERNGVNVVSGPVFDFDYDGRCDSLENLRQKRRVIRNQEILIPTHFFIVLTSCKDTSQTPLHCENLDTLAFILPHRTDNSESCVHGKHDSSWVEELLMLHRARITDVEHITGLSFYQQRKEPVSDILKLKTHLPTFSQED

human ENPP3 on cells [4] = biological target: T1, human ENPP3 on cells; experiment: flow cytometry on VMRCRCW cells
human CD3 on T cells [5] = biological target: T2, human CD3 on T cells; experiment: flow cytometry on human T cells, average of 6 donors
human CD3 on T cells [6] = biological target: T2, human CD3 on T cells; experiment: flow cytometry on human T cells, donor 110044049

B1: NPP3B815 (bispecific antibody, human IgG1, kappa, L234A L235A)
heavy 1: EIVLTQSPATLSASPGERVTLSCSASSSVSYMNWYQQKPGCAPRRWIYDSSKLASGVPARFSGSGSGRDYTLTISSLEPEDFAVYYCQQWSRNPPTFGGGTKVEIKGGGSGGSGGCPPCGGSGGQVQLVQSGAEVKKPGSSVKVSCKASGYTFTRSTMHWVKQAPGQGLEWIGYINPSSAYTNYNQKFQGRVTLTADKSTSTAYMELSSLRSEDTAVYYCASPQVHYDYAGFPYWGCGTLVTVSSEPKSSDKTHTCPPCPAPEAAGGPSVFLFPPKPKDTLMISRTPEVTCVVVSVSHEDPEVKFNWYVDGVEVHNAKTKPREEQYNSTYRVVSVLTVLHQDWLNGKEYKCKVSNKALPAPIEKTISKAKGQPREPQVYTLPPSREEMTKNQVSLWCLVKGFYPSDIAVEWESNGQPENNYKTTPPVLDSDGSFFLYSKLTVDKSRWQQGNVFSCSVMHEALHNHYTQKSLSLSPGK
heavy 2: EVQLVESGGGRVKPGGSLRLSCAASGFTFSDYSMNWVRQAPGKGLEWVSSISSISSYVKYADSVKGRFTMSRDNAKNSLFLQMNSLRDEDMAVYYCARGHYFDYWGQGTLVTVSSASTKGPSVFPLAPSSKSTSGGTAALGCLVKDYFPEPVTVSWNSGALTSGVHTFPAVLQSSGLYSLSSVVTVPSSSLGTQTYICNVNHKPSNTKVDKKVEPKSCDKTHTCPPCPAPEAAGGPSVFLFPPKPKDTLMISRTPEVTCVVVSVSHEDPEVKFNWYVDGVEVHNAKTKPREEQYNSTYRVVSVLTVLHQDWLNGKEYKCKVSNKALPAPIEKTISKAKGQPREPQVYTLPPSREEMTKNQVSLSCAVKGFYPSDIAVEWESNGQPENNYKTTPPVLDSDGSFFLVSKLTVDKSRWQQGNVFSCSVMHEALHNRFTQKSLSLSPGK
light: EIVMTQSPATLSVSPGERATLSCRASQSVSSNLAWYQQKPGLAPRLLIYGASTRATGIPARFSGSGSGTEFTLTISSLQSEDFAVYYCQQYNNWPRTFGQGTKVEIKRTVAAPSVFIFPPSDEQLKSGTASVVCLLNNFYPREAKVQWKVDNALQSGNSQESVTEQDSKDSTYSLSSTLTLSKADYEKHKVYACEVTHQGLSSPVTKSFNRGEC
notes: HC2 carries the NPP3B56 Fab and the hole T366S, L368A, Y407V; Fc with L234A, L235A, D265S; The CPPC linker cysteines form disulfides with engineered Cys at L42 and H105 (Chothia); also called NPP3B56×CD3B2030-N106A; ENPP3×CD3 (NPP3B815)
For B1, the “T-cell activation (CD25) EC50; A704; T-cell donor 110040278; E:T 3:1” value (human ENPP3 on cells [1]) was 0.008 nM, the “T-cell activation (CD25) EC50; A704; T-cell donor 110042496; E:T 3:1” value (human ENPP3 on cells [1]) was 0.017 nM and the “T-cell activation (CD25) EC50; A704; T-cell donor 110042593; E:T 3:1” value (human ENPP3 on cells [1]) was 0.013 nM. The “T-cell activation (CD25) EC50; A704; T-cell donor 110044049; E:T 3:1” value (human ENPP3 on cells [1]) was 0.008 nM, the “T-cell activation (CD25) EC50; A704; T-cell donor 110048457; E:T 3:1” value (human ENPP3 on cells [1]) was 0.01 nM and the “T-cell activation (CD25) EC50; A704; T-cell donor 888668965; E:T 3:1” value (human ENPP3 on cells [1]) was 0.008 nM. For the same binder, the “T-cell activation (CD25) EC50; VMRCRCW; T-cell donor 110040278; E:T 3:1” value (human ENPP3 on cells [1]) was 0.007 nM, the “T-cell activation (CD25) EC50; VMRCRCW; T-cell donor 110042496; E:T 3:1” value (human ENPP3 on cells [1]) was 0.015 nM and the “T-cell activation (CD25) EC50; VMRCRCW; T-cell donor 110042593; E:T 3:1” value (human ENPP3 on cells [1]) was 0.017 nM. For the same binder, the “T-cell activation (CD25) EC50; VMRCRCW; T-cell donor 110044049; E:T 3:1” value (human ENPP3 on cells [1]) was 0.009 nM, the “T-cell activation (CD25) EC50; VMRCRCW; T-cell donor 110048457; E:T 3:1” value (human ENPP3 on cells [1]) was 0.009 nM and the “T-cell activation (CD25) EC50; VMRCRCW; T-cell donor 888668965; E:T 3:1” value (human ENPP3 on cells [1]) was 0.016 nM. The EC50 (human CD3 on T cells [2]) was 146 nM, the EC50 (human CD3 on T cells [3]) was 197 nM and the binding result (ENPP1 on CHOK1 cells) was “no binding (tested: 100 nM)”. The EC50 (human ENPP3 on cells [4]) was 0.5 nM, the EC50 (human CD3 on T cells [5]) was 177 nM and the EC50 (human CD3 on T cells [6]) was 188 nM.
